# Laboratory results taken from US20240317847A1 (Bayer, published 2024).
# Positions count from the first letter of the chain named.
# B1: TPP-18087 (antibody, mouse IgG1, V domains shown)
# VH: EVQLLESGGGLVQPGGSLRLSCAASGFTFSHYDMNWLRQAPGKGLEWVGVISYDGSNKFYADFVKGRFTISRDNSKNTLYLQMNSLRAEDTAVYYCARTPGSHFDYWGQGTLVTVSS
# VL: QSVLTQPPSASGTPGQRVTISCSGSSSNIGNNAVNWYQQLPGTAPKLLIYYDDLLPSGVPDRFSGSKSGTSASLAISGLRSEDEADYYCSAWDDSLNGVVFGGGTKLTVLG
# notes: mIgG1, Lambda
# B2: TPP-29697 (bispecific antibody, IgG1)
# chain 1: QVQLVESGGGVVQPGRSLRLSCAASGFTFSHYDMHWVRQAPGKGLEWVAVISYHGSVKFYADSVKGRFTISRDNSKNTLYLQMNSLRAEDTAVYYCARTPGFHFDYWGQGTLVTVSSGGGGSGGGGSGGGGSQSVLTQPPSASGTPGQRVTISCSGSSSNIGSNYVSWYQQLPGTAPKLLIYYDDLRPSGVPDRFSGSKSGTSASLAISGLRSEDEADYYCSAWDDSLSGVVFGGGTKLTVLGGGGSGGGGSGGGGSGVECPPCPAPPVAGPSVFLFPPKPKDTLMISRTPEVTCVVVGVSHEDPEVKFNWYVDGVEVHNAKTKPREEQYNSTYRVVSVLTVLHQDWLNGKEYKCKVSNKQLPSPIEKTISKAKGQPREPQVYTLPPCRDELTKNQVSLWCLVKGFYPSDIAVEWESNGQPENNYKTTPPVLDSDGSFFLYSKLTVDKSRWQQGNVFSCSVMHEALHNHYTQKSLSLSPGK
# chain 2: EVQLLESGGGLVQPGGSLRLSCAASGFTFSSYGMHWVRQAPGKGLEWVAVISYDGSYKYYADSVKGRFTISRDNSKNTLYLQMNSLRAEDTAVYYCAAGVPDYWGQGTLVTVSSGGGGSGGGGSGGGGSQSVLTQPPSASGTPGQRVTISCSGSSSNIGSDYDVHWYQQLPGTAPKLLIYSNEERPSGVPDRFSGSKSGTSASLAISGLRSEDEADYYCSAWDSSLSGPVFGGGTKLTVLGGGGSGGGGSGGGGSGVECPPCPAPPVAGPSVFLFPPKPKDTLMISRTPEVTCVVVGVSHEDPEVKFNWYVDGVEVHNAKTKPREEQYNSTYRVVSVLTVLHQDWLNGKEYKCKVSNKQLPSPIEKTISKAKGQPREPQVCTLPPSRDELTKNQVSLSCAVKGFYPSDIAVEWESNGQPENNYKTTPPVLDSDGSFFLVSKLTVDKSRWQQGNVFSCSVMHEALHNHYTQKSLSLSPGK
# notes: scFv-kih-hIgG1 with Fc-silencing mutations; bispecific comprising CDRs of TPP-29528 and TPP-29519
# B3: TPP-29603 (bispecific antibody, IgG1)
# chain 1: QVQLVESGGGVVQPGRSLRLSCAASGFTFSHYDMHWVRQAPGKGLEWVAVISYHGSVKFYADSVKGRFTISRDNSKNTLYLQMNSLRAEDTAVYYCARTPGFHFDYWGQGTLVTVSSGGGGSGGGGSGGGGSQSVLTQPPSASGTPGQRVTISCSGSSSNIGSNYVSWYQQLPGTAPKLLIYYDDLRPSGVPDRFSGSKSGTSASLAISGLRSEDEADYYCSAWDDSLSGVVFGGGTKLTVLGGGGSGGGGSGGGGSGVECPPCPAPPVAGPSVFIFPPKPKDVLTITLTPKVTCVVVDISKDDPEVQFSWFVDDVEVHTAQTQPREEQFNSTFRSVSELPIMHQDWLNGKEFKCRVNSAAFPAPIEKTISKTKGRPKAPQVYTIPPCKEQMAKDKVSLWCMITDFFPEDITVEWQWNGQPAENYKNTQPIMDTDGSYFVYSKLNVQKSNWEAGNTFTCSVLHEGLHNHHTEKSLSHSPGK
# chain 2: EVQLLESGGGLVQPGGSLRLSCAASGFTFSSYGMHWVRQAPGKGLEWVAVISYDGSYKYYADSVKGRFTISRDNSKNTLYLQMNSLRAEDTAVYYCAAGVPDYWGQGTLVTVSSGGGGSGGGGSGGGGSQSVLTQPPSASGTPGQRVTISCSGSSSNIGSDYDVHWYQQLPGTAPKLLIYSNEERPSGVPDRFSGSKSGTSASLAISGLRSEDEADYYCSAWDSSLSGPVFGGGTKLTVLGGGGSGGGGSGGGGSGVECPPCPAPPVAGPSVFIFPPKPKDVLTITLTPKVTCVVVDISKDDPEVQFSWFVDDVEVHTAQTQPREEQFNSTFRSVSELPIMHQDWLNGKEFKCRVNSAAFPAPIEKTISKTKGRPKAPQVCTIPPPKEQMAKDKVSLSCAITDFFPEDITVEWQWNGQPAENYKNTQPIMDTDGSYFVVSKLNVQKSNWEAGNTFTCSVLHEGLHNHHTEKSLSHSPGK
# notes: scFv-kih-mIgG1; bispecific comprising CDRs of TPP-29528 and TPP-29519
# B4: TPP-18068 (antibody, mouse IgG1)
# heavy: EVQLLESGGGLVQPGGSLRLSCAASGFTFSSYGMHWVRQAPGKGLEWVSVISYDGSYKYYADSVKGRFTISRDNSKNTLYLQMNSLRAEDTAVYYCAAGVPDYWGQGTLVTVSSAKTTPPSVYPLAPGSAAQTNSMVTLGCLVKGYFPEPVTVTWNSGSLSSGVHTFPAVLQSDLYTLSSSVTVPSSTWPSETVTCNVAHPASSTKVDKKIVPRDCGCKPCICTVPEVSSVFIFPPKPKDVLTITLTPKVTCVVVDISKDDPEVQFSWFVDDVEVHTAQTQPREEQFNSTFRSVSELPIMHQDWLNGKEFKCRVNSAAFPAPIEKTISKTKGRPKAPQVYTIPPPKEQMAKDKVSLTCMITDFFPEDITVEWQWNGQPAENYKNTQPIMDTDGSYFVYSKLNVQKSNWEAGNTFTCSVLHEGLHNHHTEKSLSHSPGK
# light: QSVLTQPPSASGTPGQRVTISCTGSSSNIGAGYDVHWYQQLPGTAPKLLIYSNNERPSGVPDRFSGSKSGTSASLAISGLRSEDEADYYCAAWDDSLNGPVFGGGTKLTVLGQPKSSPSVTLFPPSSEELETNKATLVCTITDFYPGVVTVDWKVDGTPVTQGMETTQPSKQSNNKYMASSYLTLTARAWERHSSYSCQVTHEGHTVEKSLSRADCS
# notes: mIgG1, Lambda
# B5: TPP-29528 (antibody, mouse IgG1)
# heavy: B4 heavy with S49A
# light: B4 light with T23S, A31S, G32D, N54E, A91S, D95S, N98S
# notes: mIgG1, Lambda
# Molecular target: T1, human IL-11 (human, UniProt P20809 22-199)
# T1 sequence: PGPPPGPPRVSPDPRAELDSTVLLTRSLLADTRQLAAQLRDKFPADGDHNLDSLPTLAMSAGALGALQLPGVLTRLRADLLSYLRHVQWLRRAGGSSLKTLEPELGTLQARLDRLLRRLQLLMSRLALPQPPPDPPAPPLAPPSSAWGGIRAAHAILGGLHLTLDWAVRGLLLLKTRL
# Assay: cell-based or functional assay
Binder,"Efficacy (%), Stat3 reporter gene assay [%]","IC50, Stat3 reporter gene assay [nM]"
B1,47.8,–
B2,99.1,2
B3,101,4.1
B4,46.1,6.5
B5,81.2,–

# Molecular target: T2, murine IL-11 (mouse, UniProt P47873 22-199)
# T2 sequence: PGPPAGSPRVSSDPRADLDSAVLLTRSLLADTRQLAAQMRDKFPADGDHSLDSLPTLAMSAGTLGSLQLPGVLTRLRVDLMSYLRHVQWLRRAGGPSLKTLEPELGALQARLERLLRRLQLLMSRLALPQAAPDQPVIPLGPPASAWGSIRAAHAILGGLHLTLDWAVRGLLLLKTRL
# Assay: cell-based or functional assay
Binder,"Efficacy (%), Stat3 reporter gene assay [%]","IC50, Stat3 reporter gene assay [nM]"
B1,59.4,16
B2,99.6,1.4
B3,102,2
B4,93.6,1.2
B5,96.9,0.89

# Molecular target: T3, cynomolgus IL-11 (cynomolgus, UniProt P20808 22-199)
# T3 sequence: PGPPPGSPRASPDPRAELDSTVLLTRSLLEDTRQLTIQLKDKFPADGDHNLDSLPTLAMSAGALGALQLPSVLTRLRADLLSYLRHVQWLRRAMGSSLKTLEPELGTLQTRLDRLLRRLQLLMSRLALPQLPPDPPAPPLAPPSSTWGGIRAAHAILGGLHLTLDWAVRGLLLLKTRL
# Assay: cell-based or functional assay
Binder,"Efficacy (%), Stat3 reporter gene assay [%]","IC50, Stat3 reporter gene assay [nM]"
B1,47.7,–
B2,100,0.75
B3,101,1.7
B4,70,4.1
B5,87.8,0.44

# Molecular target: T4, rat IL-11 (rat, UniProt Q99MF5 22-199)
# T4 sequence: T2 sequence with S50N, L84F, G94A, V137A, I138V
# Assay: cell-based or functional assay
Binder,"Efficacy (%), Stat3 reporter gene assay [%]","IC50, Stat3 reporter gene assay [nM]"
B1,31.8,–
B2,97.6,~1.2
B3,99.9,2
B4,94,1.8
B5,89.9,1.8

# Molecular target: T2, murine IL-11
# Assay: SPR (Biacore), 37 C, antibody captured via anti-Fc, IL-11 as analyte
# Method: To assess the binding kinetics and affinity of anti-IL-11 bispecific antibodies as well as their species cross-reactivity profile, binding assays were conducted using surface plasmon resonance (SPR). […] Antibodies were captured either via anti-human Fc IgGs (“Human antibody capture kit”, Order No. BR100839, Cytiva) or via anti-mouse Fc IgGs (“Mouse antibody capture kit, Order No. BR100383, Cytiva) covalently amine coupled to a Series S CM5 sensor chip (Cytiva) depending on the isotype. The amine coupling was carried out according to the manufacturer's instructions using 1-ethyl-3-(3-dimethylaminopropyl) carbodiimide hydrochloride (EDC), N-hydroxysuccinimide (NHS) and ethanolamine HCl, pH 8.5 (“Amine Coupling Kit” BR-1000-50, Cytiva.). Human, mouse, cynomolgus or rat IL-11 was used as analyte at several dilutions within the concentration range from 0.05-200 nM. For binding assays with only one concentration 200 nM IL-11 was used. The sensor surface was regenerated with glycine pH 1.7 after each antigen injection. Obtained sensorgrams were double referenced (subtraction of reference flow cell signal and buffer injection) and were fitted to a 1:1 Langmuir binding model to derive kinetic data using the Biacore T200 Evaluation software or the Biacore Insight software.
# If no value is reported, there was either no binding or very low binding and multiphasic binding behavior.
row,Binder,Kd [nM]
1,B1,41
2,B2,< 0.001
3,B3,0.0017
4,B4,0.41
5,B5,0.23

# Molecular target: T2, murine IL-11
# Assay: Tri-complex ELISA, mIL-11 + mIL-11Ra-Fc + mgp130-Fc, inhibition of complex formation
Binder,IC50 [nM],Efficacy (%)
B1,33,–
B4,3.9,84.9
B5,0.6,94.7
